Patent US20210187071A1, “COMPOSITIONS COMPRISING MDA-7/IL-24 PROTEIN AND METHODS OF USE” (VIRGINIA COMMONWEALTH UNIVERSITY, priority 2017, published 2021)

Test system: RAW 264.7
Assay: MTT proliferation assay in RAW 264.7 cells
Type: cell-based, mouse
Details: His-MDA-7 10 μg/ml, 5 days
Protocol: MTT Cell Proliferation and Clonal Assays: Cell proliferation assays were done as described previously (25). Briefly, 2,000 cells were seeded in each well of a 96-well plate and allowed to attach overnight. Cells were treated with complete media in the presence or absence of different concentrations of MDA-7/IL-24 protein. At appropriate time points, cells were further incubated with MTT (3-(4, 5-di methyl thiazol-2-yl)-2, 5 diphenyl tetrazolium bromide) reagents. Finally, DMSO was applied to dissolve the blue salt and the OD was measured at 560 nm (25). For determining long-term effects, colony formation (cloning) assays were performed as described earlier (26). […]
To investigate the effect of MDA-7/IL-24 on osteoclast differentiation, bone marrow cells from athymic nude mice were isolated and induced to differentiate with RANKL in the presence or absence of MDA-7/IL-24 protein. Five days after induction with RANKL, osteoclast differentiation was measured by counting multinucleated cells. Cells positively stained for TRAP and multinucleated cells were quantified under a light microscope (FIG. 9A). […] Using RAW 264.7 cells, different genetic markers associated with osteoclastic differentiation were monitored (33). […] RNA was isolated after 5 days of treatment and real time PCR quantified expression of TRAP, Cathepsin K (CTSK), and Calcitonin Receptor (CTR) genes. […]

B1: MDA-7/IL-24 protein: Recombinant His-tagged MDA-7/IL-24 protein purified on Ni-NTA from supernatant of IM-PHFA cells infected with Ad.5-His-mda-7 (protein)
chain: QEFHFGPCQVKGVVPQKLWEAFWAVKDTMQAQDNITSARLLQQEVLQNVSDAESCYLVHTLLEFYLKTVFKNYHNRTVEVRTLKSFSTLANNFVLIVSQLQPSQENEMFSIRDSAHRRFLLFRRAFKQLDVEAALTKALGEVDILLTWMQKFYKL
- Proliferation of RAW 264.7 (MTT): not affected
